Assay results as given in patent US20210206856A1 (PANDION OPERATIONS, published 2021).

T1: human MAdCAM expressed on cells (human, UniProt Q13477 19-382)
T1 construct: whole, on cells; also called MADCAM1
T1 sequence (looked up): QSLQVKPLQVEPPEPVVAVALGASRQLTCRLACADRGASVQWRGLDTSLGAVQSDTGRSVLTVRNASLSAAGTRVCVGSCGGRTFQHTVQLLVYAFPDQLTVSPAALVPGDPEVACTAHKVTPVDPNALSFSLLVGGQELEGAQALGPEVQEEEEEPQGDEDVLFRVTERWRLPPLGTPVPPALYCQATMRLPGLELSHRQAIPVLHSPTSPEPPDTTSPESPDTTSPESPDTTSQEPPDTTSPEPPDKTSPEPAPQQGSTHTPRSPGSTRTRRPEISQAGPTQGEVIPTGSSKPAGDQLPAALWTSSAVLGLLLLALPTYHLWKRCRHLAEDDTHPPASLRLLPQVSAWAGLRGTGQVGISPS

T2: mouse MAdCAM expressed on cells (mouse, UniProt Q61826 22-405)
T2 construct: whole, on cells
T2 sequence (looked up): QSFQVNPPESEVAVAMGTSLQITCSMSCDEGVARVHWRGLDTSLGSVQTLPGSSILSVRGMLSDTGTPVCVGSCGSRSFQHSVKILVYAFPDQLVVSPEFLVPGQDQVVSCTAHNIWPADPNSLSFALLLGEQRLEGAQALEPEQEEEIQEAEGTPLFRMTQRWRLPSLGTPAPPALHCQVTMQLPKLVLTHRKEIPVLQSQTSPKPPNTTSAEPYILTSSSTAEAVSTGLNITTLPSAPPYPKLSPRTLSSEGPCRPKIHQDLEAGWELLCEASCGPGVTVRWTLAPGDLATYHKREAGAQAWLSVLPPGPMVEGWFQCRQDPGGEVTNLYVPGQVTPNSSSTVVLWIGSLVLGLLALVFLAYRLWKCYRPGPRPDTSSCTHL


Legend:
[1] = target: T1, human MAdCAM expressed on cells; assay: cell binding
[2] = target: T2, mouse MAdCAM expressed on cells; assay: cell binding

Binder	binding result [1]	binding result [2]
MAdCAM Antibody Table 1 Clone 40 (scFv) scFv: QVQLVQSGAEVKKPGASVKVSCKASGYTFTSYGISWVRQAPGQGLEWMGIINPRGGSTIFAQKFQGRVTMTRDTSTSTVYMELSSLRSEDTAVYYCARGTRSSGWYGWFDPWGQGTLVTVSSGGGGSGGGGSGGGGSGGGGSDIQMTQSPSSLSASVGDRVTITCRASQGIGNWLAWYQQKPGKAPKLLIYAASNLETGVPSRFSGSGSGTDFTLTISSLQPEDFATYYCQQIHSYPLTFGGGTKVEIK	binds	no binding
MAdCAM Antibody Table 1 Clone 38 (scFv) scFv: EVQLLESGGGLVQPGGSLRLSCAASGFTFGSYSMSWVRQAPGKGLEWVSAIGTGGGTYYADSVKGRFTISRDNSKNTLYLQMNSLRAEDTAVYYCAKGTPYYYYYGMDVWGQGTMVTVSSGGGGSGGGGSGGGGSGGGGSDIQMTQSPSSLSASVGDRVTITCRASQPLSNWLAWYQQKPGKAPKLLIYAASSLQSGVPSRFSGSGSGTDFTLTISSLQPEDFATYYCQQAISFPLTFGGGTKVEIK	binds	no binding
MAdCAM Antibody Table 1 Clone 33 (scFv) scFv: QVQLVQSGAEVKKPGASVKVSCKASGYTFTSYGISWVRQAPGQGLEWMGWMHPKSGDTGLTQKFQGRVTMTRDTSTSTVYMELSSLRSEDTAVYYCARDTPYYYYGMDVWGQGTTVTVSSGGGGSGGGGSGGGGSGGGGSDIQMTQSPSSLSASVGDRVTITCRASQSISSWLAWYQQKPGKAPKLLIYAASSLQSGVPSRFSGSGSGTDFTLTISSLQPEDFATYYCQQSYSVPITFGQGTKVEIK	binds	no binding
MAdCAM Antibody Table 1 Clone 29 (scFv) scFv: QVQLVQSGAEVKKPGASVKVSCKASGYTFTSYYMHWVRQAPGQGLEWMAWMNPNSGNTGYAQKFQGRVTMTRDTSTSTVYMELSSLRSEDTAVYYCARDYDFWSGSLGYWGQGTLVTVSSGGGGSGGGGSGGGGSGGGGSDIQMTQSPSSLSASVGDRVTITCRASQGISNYLAWYQQKPGKAPKLLIYAASSLQSGVPSRFSGSGSGTDFTLTISSLQPEDFATYYCQQSYSTPWTFGQGTKVEIK	binds	no binding
MAdCAM Antibody Table 1 Clone 28 (scFv) scFv: QVQLVQSGAEVKKPGASVKVSCKASGYTFTDYFLHWVRQAPGQGLEWMGWMNPTSGNTGYAQKFQGRVTMTRDTSTSTVYMELSSLRSEDTAVYYCAREGEGSGFDYWGQGTLVTVSSGGGGSGGGGSGGGGSGGGGSDIQMTQSPSSLSASVGDRVTITCRASQGINSWLAWYQQKPGKAPKLLIYDASNLETGVPSRFSGSGSGTDFTLTISSLQPEDFATYYCQQSYSTPLTFGGGTKVEIK	binds	no binding
MAdCAM Antibody Table 1 Clone 32 (scFv) scFv: QVQLVQSGAEVKKPGASVKVSCKASGYTLTDYYMHWVRQAPGQGLEWMGIINPSGGSTSYAQKFQGRVTMTRDTSTSTVYMELSSLRSEDTAVYYCAREEYSSSSGYFDYWGQGTLVTVSSGGGGSGGGGSGGGGSGGGGSDIQMTQSPSSLSASVGDRVTITCRASQGISSWLAWYQQKPGKAPKLLIYAASSLQSGVPSRFSGSGSGTDFTLTISSLQPEDFATYYCQQSYSTPLTFGQGTKVEIK	binds	no binding
MAdCAM Antibody Table 1 Clone 35 (scFv) scFv: EVQLLESGGGLVQPGGSLRLSCAASGFSFSSYTMNWVRQAPGKGLEWVSFITSSSRTIYYADSVKGRFTISRDNSKNTLYLQMNSLRAEDTAVYYCARDRRGDYGDSWYFDLWGRGTLVTVSSGGGGSGGGGSGGGGSGGGGSEIVMTQSPATLSVSPGERATLSCRASQSVRNYLAWYQQKPGQAPRLLIYGASTRATGIPARFSGSGSGTEFTLTISSLQSEDFAVYYCQQYGSSPLTFGGGTKVEIK	binds	no binding
MAdCAM Antibody Table 1 Clone 42 (scFv) scFv: QVQLVQSGAEVKKPGSSVKVSCKASGGTLSRYGVSWVRQAPGQGLEWMGGIIPIFGTTNYAQKFQGRVTITADESTSTAYMELSSLRSEDTAVYYCARDRVYYDSSGYPTWYFDLWGRGTLVTVSSGGGGSGGGGSGGGGSGGGGSEIVMTQSPATLSVSPGERATLSCRASQSVSSSYLAWYQQKPGQAPRLLIYGASTRATGIPARFSGSGSGTEFTLTISSLQSEDFAVYYCQQYGSSPITFGQGTKVEIK	binds	no binding
MAdCAM Antibody Table 1 Clone 31 (scFv) scFv: QVQLVQSGAEVKKPGASVKVSCKASGYTFTSYYMHWVRQAPGQGLEWMGIINPSGGSTSYAQKFQGRVTMTRDTSTSTVYMELSSLRSEDTAVYYCARDTGYSYGRYYYYGMDVWGQGTLVTVSSGGGGSGGGGSGGGGSGGGGSDIQMTQSPSSLSASVGDRVTITCRASQSIGRWLAWYQQKPGKAPKLLIYDASNLQSGVPSRFSGSGSGTDFTLTISSLQPEDFATYYCQQSYSIPITFGQGTKVEIK	binds	no binding
MAdCAM Antibody Table 1 Clone 36 (scFv) scFv: QVQLVQSGAEVKKPGASVKVSCKASGYTFTGHYMHWVRQAPGQGLEWMGIINPSGGSTSYAQKFQGRVTMTRDTSTSTVYMELSSLRSEDTAVYYCARDTGYSYGRYYYYGMDVWGQGTTVTVSSGGGGSGGGGSGGGGSGGGGSDIQMTQSPSSLSASVGDRVTITCRASQSIGRWLAWYQQKPGKAPKLLIYDASNLQSGVPSRFSGSGSGTDFTLTISSLQPEDFATYYCQQSYSIPITFGGGTKVEIK	binds	no binding
MAdCAM Antibody Table 1 Clone 27 (scFv) scFv: QVQLVQSGAEVKKPGASVKVSCKASGYTFTGYYIHWVRQAPGQGLEWMGWMNPNSGNTGYAQKFQGRVTMTRDTSTSTVYMELSSLRSEDTAVYYCARDPGFLGYCSGGSCYDGWFDPWGQGTLVTVSSGGGGSGGGGSGGGGSGGGGSDIQMTQSPSSLSASVGDRVTITCRASQSISSYLHWYQQKPGKAPKLLIYAASSLQSGVPSRFSGSGSGTDFTLTISSLQPEDFATYYCQQSYTAPYTFGQGTKLEIK	binds	no binding
MAdCAM Antibody Table 1 Clone 43 (scFv) scFv: EVQLLESGGGLVQPGGSLRLSCAASGFTFDDFAMHWVRQAPGKGLEWVSGISGNGDSRYYADSVKGRFTISRDNSKNTLYLQMNSLRAEDTAVYYCARDASYGGNYGMDVWGQGTTVTVSSGGGGSGGGGSGGGGSGGGGSDIQMTQSPSSLSASVGDRVTITCQASQDIRNYLNWYQQKPGKAPKLLIYKASTLESGVPSRFSGSGSGTDFTLTISSLQPEDFATYYCQQANSFPLTFGPGTKVDIK	binds	no binding
MAdCAM Antibody Table 1 Clone 56 (scFv) scFv: EVQLLESGGGLVQPGGSLRLSCAASGFTFDDYAMHWVRQAPGKGLEWVSAISGGGEDTYYADSVKGRFTISRDNSKNTLYLQMNSLRAEDTAVYYCARDASYGGNYGMDVWGQGTTVTVSSGGGGSGGGGSGGGGSGGGGSDIQMTQSPSSLSASVGDRVTITCQASQDIRNYLNWYQQKPGKAPKLLIYKASSLESGVPSRFSGSGSGTDFTLTISSLQPEDFATYYCQQANSYPVTFGGGTKVEIK	binds	no binding
MAdCAM Antibody Table 1 Clone 37 (scFv) scFv: QVQLVQSGAEVKKPGASVKVSCKASGYTFSKHFVHWVRQAPGQGLEWMGWMNPNSGNSGYAQKFQGRVTMTRDTSTSTVYMELSSLRSEDTAVYYCARGEGGYYYYGMDVWGQGTLVTVSSGGGGSGGGGSGGGGSGGGGSDIQMTQSPSSLSASVGDRVTITCRASQSISSWLAWYQQKPGKAPKLLIYAASTLQSGVPSRFSGSGSGTDFTLTISSLQPEDFATYYCQQSYSTPWTFGQGTKVEIK	binds	no binding
MAdCAM Antibody Table 1 Clone 44 (scFv) scFv: EVQLVESGGGLVKPGGSLRLSCAASGFTFSSYWMSWVRQAPGKGLEWVSAIGTGGGTYYAAPVKGRFTISRDDSKNTLYLQMNSLKTEDTAVYYCAREWLVPYYGMDVWGQGTTVTVSSGGGGSGGGGSGGGGSGGGGSDIQMTQSPSSLSASVGDRVTITCRASQSISRWLAWYQQKPGKAPKLLIYGASNLQSGVPSRFSGSGSGTDFTLTISSLQPEDFATYYCQQSYSTPWTFGQGTKVEIK	binds	no binding
MAdCAM Antibody Table 1 Clone 39 (scFv) scFv: QVQLVQSGAEVKKPGASVKVSCKASGYTFTSYYMHWVRQAPGQGLEWMGWMNPNSGNTGYAQKFQGRVTMTRDTSTSTVYMELSSLRSEDTAVYYCARDLGYYDSSGYFGAFDIWGQGTTVTVSSGGGGSGGGGSGGGGSGGGGSDIQMTQSPSSLSASVGDRVTITCQSSEDISSSLNWYQQKPGKAPKLLIYAASSLQIGVPSRFSGSGSGTDFTLTISSLQPEDFATYYCQQTYSTPYTFGQGTKVEIK	binds	no binding
